We go through two molecules from patent US12723255B2, “Herbicide tolerance genes and methods of use thereof” (priority 2014, dated 2026).

Values joined by “and” are separate entries in the source; they are usually repeats but may differ in a detail not shown here. Identical values can stand only once.

Assay [1] relates to transgenic maize plants. The assay can be described thus: R1 trait efficacy field trial (quizalofop-P and haloxyfop). Format: in vivo. The settings on record: 2× quizalofop-P pre-plant, 2× haloxyfop V4, 2× quizalofop-P V8. How it is done:
To assess the effect of using a CTP to target the engineered protein to the plant cell chloroplast, transgenic plants comprising a transgene insert with and without a CTP operably linked to the protein-coding sequence were compared. […] This unexpected finding was tested again in trait efficacy field trials with R1 plants comprising either MON-HT51 with or without a CTP operably linked to the protein-coding sequence or MON-HT55 with or without a CTP operably linked to the protein-coding sequence. These R1 plants were single-copy, but were still segregating. In this field trial, seed was planted in the field and treated as follows: 2× (0.16 lb ai/acre) quizalofop-P at pre-plant, 2× (0.14 lb ai/acre) haloxyfop at V4 growth stage, then 2× quizalofop-P at V8 growth stage. A higher percentage of plants comprising a CTP operably linked to the protein-coding sequence survived quizalofop-P and haloxyfop applications and had lower injury scores compared to plants not comprising a CTP operably linked to the protein-coding sequence. This confirmed the unexpected finding that a CTP operably linked to the protein-coding sequence confers higher plant tolerance to herbicide application for the engineered proteins.

Assay [2] has as its system transgenic maize plants. The assay is described as follows: inbred trait efficacy field trials (R2). Format: in vivo. The following applies: with or without CTP; quizalofop-P 0.16 lb ai/acre PRE, V4, V8. On the procedure: Inbred trait efficacy field trials were conducted to assess tolerance to the AOPP herbicides and sensitivity to the cyclohexanediones (CHD) herbicides in an inbred background. R2 inbred plants were generated by selfing a homozygous transgenic R1 plant and collecting seed. R2 inbred plants containing MON-HT55 with or without a CTP or MON-HT51 with a CTP and were evaluated at two field locations. Herbicide treatment was 2× quizalofop-P at 0.16 lb ai/acre applied PRE (after planting but before emergence) followed by quizalofop-P at 0.16 lb ai/acre applied at V4 growth stage followed by quizalofop-P at 0.16 lb ai/acre applied at V8 growth stage. Plots were rated for crop injury 7-10 days after herbicide application on a scale of 0-100 with zero being no injury and 100 being complete crop death. All data were subjected to analysis of variance and means separated at LSD (0.05). […] To test for sensitivity to CHD herbicides, which is desirable for use in volunteer control, plants were treated with a 1× rate of clethodim (0.25 lb ai/acre) at V8 growth stage. […] The resulting F1 plants containing MON-HT55 (SEQ ID NO:13) with or without a CTP or MON-HT51 (SEQ ID NO: 3) without a CTP were evaluated at six field locations. […] This permitted the engineered protein to be evaluated in maize under high temperature and water stress conditions. […]

B1: MON-HT51: engineered oxygenase protein, amino acid sequence SEQ ID NO:1 (protein)
chain: MHAALSPLSQRFERIAVQPLTGVLGAEITGVDLREPLSDSTWNEILDAFHTYQVIYFPGQAITNEQHIAFSRRFGPVDPVPLLKSIEGYPEVQMIRREANESGRVIGDDWHTDSSFLDAPPAAVVMRAIDVPEHGGDTGFLSMYTAYDALSDGLKKLISGLNVVHSATRVFGSLYQAQNRRFSNTSVKVMDVADGDRETVHPLVVTHPGSGRKGLYVNQVYCQRIEGMSEKESEPLLSFLFAHATKPEFTCRVRWKKDQVLVWDNLCTMHYAINDYHGQTRILHRTTVGGVRPAR
For the molecule B1, the results for the “Average % Herbicide Injury” value in the assay on transgenic maize plants [1] (CTP No) and in the assay with transgenic maize plants [1] (CTP Yes) were 95% and 35%, respectively. Also, in the assay on transgenic maize plants [2], the “crop injury of inbred plants” value is reported as “no injury”.

B2: MON-HT55: engineered oxygenase protein, amino acid sequence SEQ ID NO:11 (protein)
chain: MHAALSPLSQRFERIAVQPLTGVLGAEITGVDLREPLDDSTWNEILDAFHTYQVIYFPGQAITNEQHIAFSRRFGPVDPVPLLKSIEGYPEVQMIRREANESGRVIGENWHTDSTFLDAPPAAVVMYAKEIPPYGGDTLFTSMYTAWETLSPTMQATIEGLNVVHSATRVFGSLYQAQNRRFSNTSVKVMDVDAGDRETVHPLVVTHPETGRKGLYVNQVYCQRIEGMSEKESEPLLSFLFAHATKPEFTCRVRWQEGDVLVWDNLCTQHYAVPDYAGKFRYLTRTTVGGVRPAR
As to B2, the “Average % Herbicide Injury” value in the assay with transgenic maize plants [1] (CTP No) was 49% and 90%; with transgenic maize plants [1] (CTP Yes), 24% and 25%. The “crop injury of inbred plants” value in the assay with transgenic maize plants [2] is “no injury”.
